Laboratory results from the NTF2 design screens of Basanta et al. (2020).

assay: protease stability score; higher = more stable; yeast display proteolysis, trypsin and chymotrypsin;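 note: log10 excess protease needed over predicted unfolded state with 0 meaning unfolded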

| Sequence | protease stability score |
| --- | --- |
| DDRVLHEMVKVMETGDFEKFARLADPNATIEYGDKKIHGREDAEKFATKIKQRVDHVQIKTYSVKGDSARIHFELNVNGSRIDMVLVLQVKNGRLRRASFEFRDREDSKEFVKRVH | 0.068 |
| DDSAMRQIHDLLRHIETGNEKEVSKQMDPNARLQIGDQVYHGNEQARRAWKRERDEIRISIKRVRMDAKGDKVFIEMDLVREKDGTPDRLTMRITVQQHDGRVKDLVQEERR | 0.07 |
| DDSANERAKKVMHALKTGDPDTMSELLDPNATVDVGEKQVKGMDNIVDILRKERDQIRYSIDVKRMNAKGDKVVVDATRESHHNGQPRSWHFTIFFNNTNGRVKNLKVEESG | 0.626 |
| DDSDVNQAQTIWKHWQQGNFREIAKNADPNVKINVGDKQYHGREEYESDMQEHRNQIRVKITSMSQNKNGDKAVVDAVIVNEENGEPEEKRFVWYIKAHNGRIVSFRVEDEK | 0.176 |
| DDSEIRTLAKQLAHVIETGDHEHFRKMAPPDVRARIGETEYHGREQVAEALKQERRTADHVQVEDVKASGNNVTLIITQKENGRRDRFKMVFEFHNGKVKFVSQEKQ | -0.189 |
| DDSENRNFHQFVRDWTTGNPEKLAELADENARVNVGDKTVHGRDHIRTLFEKLIRRMDIELRDVKFQKSNGEISIKARMVLNENGRPKEFVMKNNAQAEGEKIKNFVLNDDS | 0.048 |
| DDSFVEKLQELLEDGNFERVADMADPNAQFRYGNRDLHGREELRKDAREFLSRVDHYQVDSFHVDNGQLNVTAQATFDGRDYKFTMTLRAKNGRVKSFKISFTSEQQNRQLDEKRE | -0.004 |
| DDSKAEKFARDYVKNLHRGNQDQLARMVDPNVHFEYGDKQVHGREDYKQFNRRLRERVDHIQLKDFRIQGEKIRIEANFNVNGVNADIVFNFQIENGRVTRANMHFRSEDQEKQFHQ | 0.161 |
| DDSKERSNLEKFAKALETGDPKKLQQQLDPDARMQIGDKTYHGRHDMEKWLEEFNRQADHYQIDTFDQHNGTLNIQMRMNINGNTVSMTVNVVAKNGRVKHVTFDPDVWRQLES | 0.809 |
| DDSLEKELEDIMRTGNFEELVKNADKDARAQYGNRTYHGREDAKEAAHQFRKHVDSIQIDSIHRHNGHMEVDMQVNINGRNVRATMTIEAHNGRVKQFRVEVTDEEFHKTLHRLLE | 0.929 |
| DDSLLDKVKEIFSVMRTGDPDKMKKLADKHATFEVGDKQIHGREELSEIMRRRRDEQKVSVEVKRVKKQGDTANIVFTVTNNHNGTPKVETQTMTVNMSNGKITYVNVQNDK | -0.007 |
| DDSMVRLAHTVIDNWRQGDEKKAMELLDPNARAEIGDKTIHGREQMSDEIRKQRTEQRLDIKVKRLEDRPGHVVIDAENTNSKNGRPRTNRVQIHLTAQGDKLKRLRIQNDS | -0.05 |
| DDSNNEIVKHMLEALHTGDPDQMSRLVDPNVRVNVGNKEVHGREQQREEVEKIKRDMRFEADLDDYHVHGEHLEFKVTYKAQINGKPYHFSADLNLTFHNGKLQSESARMDQHELEKLDG | 0.029 |
| DDSQVRSALEQAKTGNFQNLRNQLDPNAHVRVGDKTLNGKEEAVSYMQEFRDQVDRIRVDSVTTQGEKAVADLTVVINGHRVRFELVVNIRNGRAREVELRSTSEEIKKHLEHLDS | 0.481 |
| DDSREIEKFMTTVERALRRGDEHKLREMFPEDAHLEVGDKTYRGRENVVEANKEWANKFDHIHIRYDKLRVDNGKFDITITYVLKHNGRQETRRAKVVAHKTNGQVKMKSVFDT | 0.482 |
| DDSRRATEFNKQYREVFRTGDPRKFEDYMDPNARAHYGDKELHGREQLRNYWKELTDNADHLDVQIHHLHVSGDDVNVDFQWNIDVNGENVQRKVVIIARLENGQVRAKQIVEK | -0.143 |
| DDSVKRLIKNLLKAWEHGDEHRARELMDEDARVTYGDQQVTGREEVARHHATRQKEIRYSIENMDVKVQGNHVEIHVEQQQTHNGEPKQFRYTMDVEARNGKIKRFEIQERR | 0.187 |
| DDSVMTAVKELLTNIQSGDPDKIQRYLDPNARMQVGDKEIHGRENIAKEIHDQNNEMEVDIEVKHVEVTGDTAIVHADVQEFHNGRPDTFHLVVRAKQDNGKMTSVVFEKRK | -0.268 |

| Sequence | protease stability score |
| --- | --- |
| DDTAAEVLKEQLDVLKQGDPDRVNQLVDPNAKRHVGDKNYRGMNSMADEDAQKMRNSRIKYTHWEQERSGDKVRVVVVYIEDHNGEPDTHRREFVFKASNGRFHQLNQDDDQ | -0.232 |
| DDTAIRIFEELQKAVENGDEREVQENLDEDAKIEYGNRTLHGREKAAKDYKRMHDQMEFTYDMKHFTVQGDKARLKVEYKATVNGKPYSDSVDVEVKIKNGKIKYIRFQFDEHKQRERDS | 0.894 |
| DDTAMRVYQEIVKALQTGDPDKVRNNFDENVEYHVGDTKVHGRDEALERIKKRMDEIRVEIQLQKVETQGDKVIVRARYVNETNGKPKQSNNNIIFKVKNGKMTHMQEREDS | -0.045 |
| DDTARQVYEDAADALRTGDEDEFRKQVDKDVRLTYGDKFIHGREEAARQLRDRQSTMRDEWDINEVQVRNGTINVDANKRNHENGQPQDVNLRVEVHAHNGKLTELRYTVQQ | -0.177 |
| DDTAVKIATRFWKAVETNDEQTLRDNLDPNVEVRYGDKTYHGMEDILKRLRHDADNMRHKVEIKDYRTHNGQANIDMVVRQEHNGKPERRRFKLHFRISNGRVRTMKLNDDS | 0.733 |
| DDTAVRIWEKLLSALRTGNEQEVEKNLDPNATVVIGDKRVSGREEVKRMVRRLLTTMRLNVKSVENRDQPGHADVQYTVQFNHNGRPREDRWVVIVRVKNGKIQTVVMKENP | 1.12 |
| DDTDQAEKMMEKLKDAFDTGDEDQVLKLADKDVKVDVGDKSYHGKEEYLDLFRHWLKKVDHLRLEVKHVNQNGDEISVTAKLVLDNNGETTDHTLHLVARSVNGDVVLQSMNNG | 1.16 |
| DDTHTAEEWFHHLMNILKTNDPDRFANQFDKDARLHYGDTEVRGRENMIEFLRHMVKRIDHQSYTLLQIRVSNGRVEIKVRASMKYDGRVIDDNVEFEADLRGDKIKARQVNIG | 0.564 |
| DDTKTARELVENLNEAFEKGDEDQFVSNLPPDARIEVGDRQVHGREQLKKWFDEMVERFDHMRIEVRHVEHHNGDVRVSARMQWQHNGREQSDSVEVVFVNDNGRLKMHVLRYG | 1.5 |
| DDTLKRRISELLRAEKHNDPDKINRLFDPNAHIEYGDHRIHGREELKRQITKRMKELRFRIDRVDLEVKGNHARLRIDMTQNHNGTPRRMILDVKINASNGTIHSVDVKLDG | 0.297 |
| DDTMIRRLTEWWRAFEHNNSNQMKELADPNAKFSYGDKTVTGMDDIAKQLVNEAREMRVEIRHMKVEQHGEKVRVDFEYEIRDNGRPHTNRVVLEAHQHNGKIQSVQVKDDR | 0.356 |
| DDTNVRKVKEYLKAVEHGDEETLRENVDENATVQVGDHSIHGMDNIAKKIKKDRDELRWEIKELEAEAHNGHVNVRVDARYEVNGNPIEDKFTMHFKFENGRVESVEIRVPEEFQKRVDR | 0.165 |
| DDTQAREQAHRFMEAMRTGDPDTLRKLMDKDVRVTVGDHTYHGRESVAHAVITMVESIDHISVKDIKVENGTARVDFVVTVNGRRQSYDAVLEVDNGRIRYVQMHEK | 0.857 |
| DDTQRKRIEEYWTAVKTGDEDRLTELVDEDARVRIGDKEWSGREEIVRRIHDHVRQMRVSLEFKRITVNNGKVQLHAEVEYEHNGKPDTAKVELSMELTNGKFKSNDMQIHK | 0.607 |
| DDTRKAKELADRIVKAIKHGDEEYYERLVDKDVHADVGDRTVRGSETLVNTFQHEVEKADHIDAKVRSVSAHNGKIHISITVVVDVNGQQNSKEYTVIANTSNGRVRVEQINFK | 0.454 |
| DDTRVKFALHLIKLEETGDEDKLRELMDPNAKISVGDKTYHGREEIVRELRRENHEMRVRIKQFRSTASGEKVRITMDAEFEHNGKPDRFELEVVFDFTNGRVKHIELHERR | 1.22 |
| DDTTRAKEWAEELNRIYRNGDPKELEKQMDKDVRLIIGEKHIHGRSQAMNWMRELMKKADHIELRIHDVKVQGENVTVVVVYRINVNGRDVQRRVIIVAEVHNGHLKIKEMHES | 1.88 |
| DDTVKEQAEKFFTAQNTGNPDQIANLVDPNARFTIGDKEYHGRENFKSWMETVRDKMDVDYQITDLKTDENHADVVAEYTSTHNGQPERRRMRVDMRLSNGRMKEVNIEDRS | -0.503 |
